Target: the molecule itself
Assay: crystal structure; crystals grown in lipidic cubic phase (8.8 MAG for apo, 9.9 MAG for GSH and GSO3- complexes), protein at 30 mg/ml, 20 °C; apo, with 7 mM GSH, with 7 mM GSO3-; homo-trimer

B1: Microsomal glutathione S-transferase 2 (human) (enzyme)
chain: not shown
notes: Microsomal glutathione S-transferase 2 (MGST2), human; cDNA from IMAGE clone 5277851 cloned in pPICZA; Integral membrane protein, homo-trimer in the crystals; The terminal ends are disordered in the crystal structures; also called MGST2; apo-MGST2; source: Pichia pastoris KM71H, purified (Ni-Sepharose, S-hexylglutathione agarose, SEC) in DDM
stoichiometry N: 3

Source: paper PMC7979937, “Crystal structures of human MGST2 reveal synchronized conformational changes regulating catalysis” (Nature Communications, 2021)
